US20180296701A1

Biological target: CAR (receptor of the wild-type Ad) (human) (UniProt P78310)
Assay: cell-based or functional assay

Sequence of UniProt P78310 (P78310 20-365): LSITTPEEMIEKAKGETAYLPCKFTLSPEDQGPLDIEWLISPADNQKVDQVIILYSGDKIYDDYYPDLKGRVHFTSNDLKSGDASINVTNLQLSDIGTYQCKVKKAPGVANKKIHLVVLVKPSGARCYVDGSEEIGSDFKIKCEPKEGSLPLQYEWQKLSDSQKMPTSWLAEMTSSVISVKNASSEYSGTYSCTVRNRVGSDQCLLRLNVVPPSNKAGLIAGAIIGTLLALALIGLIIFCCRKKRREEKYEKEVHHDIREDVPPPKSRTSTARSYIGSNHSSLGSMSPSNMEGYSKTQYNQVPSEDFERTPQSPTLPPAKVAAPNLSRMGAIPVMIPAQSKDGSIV

In the case of Ad knob protein, the decrease of intracellular introduction efficiency (GFP expression, flow cytometry) of wild-type Ad (naked dE1/GFP) in MIA PaCa-2 cells pre-treated with knob protein at 0.2 ug/mL is reported as 76% and the decrease of intracellular introduction efficiency (GFP expression, flow cytometry) of wild-type Ad (naked dE1/GFP) in MIA PaCa-2 cells pre-treated with knob protein at 1 ug/mL is reported as 92%.
